Measurements as given in patent US20250282887A1 (Amgen, published 2025).

T1: human MAGEA9 (human, UniProt P43362 1-315)
T1 construct: whole, on cells; FFPE cell pellets
T1 sequence (looked up): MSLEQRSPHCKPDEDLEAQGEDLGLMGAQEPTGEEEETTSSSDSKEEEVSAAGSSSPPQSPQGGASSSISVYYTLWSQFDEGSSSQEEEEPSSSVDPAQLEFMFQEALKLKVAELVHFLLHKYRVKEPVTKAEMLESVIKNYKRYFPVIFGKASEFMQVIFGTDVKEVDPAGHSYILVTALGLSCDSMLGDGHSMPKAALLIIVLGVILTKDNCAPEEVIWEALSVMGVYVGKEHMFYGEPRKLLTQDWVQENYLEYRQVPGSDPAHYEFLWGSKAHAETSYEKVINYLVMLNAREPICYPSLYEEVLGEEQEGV

T2: Human MAGEB2 (Melanoma-associated antigen B2) (human, UniProt O15479 1-319)
T2 construct: Intracellular antigen detected by IHC in FFPE material: CHO cells transfected with human MAGEB2 (mCherry vector with Myc/DDK tags, or ORF without tags)
T2 sequence: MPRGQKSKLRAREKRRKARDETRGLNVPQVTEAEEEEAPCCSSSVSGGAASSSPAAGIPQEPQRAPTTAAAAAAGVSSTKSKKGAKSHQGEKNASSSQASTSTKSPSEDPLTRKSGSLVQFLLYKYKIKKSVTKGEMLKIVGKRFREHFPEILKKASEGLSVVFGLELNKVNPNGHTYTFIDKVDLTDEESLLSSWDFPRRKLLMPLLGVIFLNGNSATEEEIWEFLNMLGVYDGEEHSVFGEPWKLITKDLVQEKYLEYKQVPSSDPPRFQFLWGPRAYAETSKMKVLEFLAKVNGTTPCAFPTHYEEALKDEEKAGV

T3: human MAGEA11 (human, UniProt P43364 1-429)
T3 construct: whole, on cells; Transfected into CHO cells with Myc/DDK tags
T3 sequence (looked up): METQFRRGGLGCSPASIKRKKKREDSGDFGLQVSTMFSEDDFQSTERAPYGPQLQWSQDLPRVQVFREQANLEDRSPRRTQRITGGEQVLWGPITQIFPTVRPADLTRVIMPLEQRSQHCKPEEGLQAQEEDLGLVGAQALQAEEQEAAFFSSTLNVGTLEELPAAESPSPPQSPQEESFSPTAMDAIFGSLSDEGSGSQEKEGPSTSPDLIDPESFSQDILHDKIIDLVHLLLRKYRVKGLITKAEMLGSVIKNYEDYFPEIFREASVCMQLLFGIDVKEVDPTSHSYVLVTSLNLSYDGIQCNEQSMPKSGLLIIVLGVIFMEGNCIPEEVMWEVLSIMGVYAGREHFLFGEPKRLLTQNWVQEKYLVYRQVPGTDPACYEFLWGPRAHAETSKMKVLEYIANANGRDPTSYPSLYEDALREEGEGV

T4: human MAGEA1 (human, UniProt P43355 1-309)
T4 construct: whole, on cells; FFPE cell pellets
T4 sequence (looked up): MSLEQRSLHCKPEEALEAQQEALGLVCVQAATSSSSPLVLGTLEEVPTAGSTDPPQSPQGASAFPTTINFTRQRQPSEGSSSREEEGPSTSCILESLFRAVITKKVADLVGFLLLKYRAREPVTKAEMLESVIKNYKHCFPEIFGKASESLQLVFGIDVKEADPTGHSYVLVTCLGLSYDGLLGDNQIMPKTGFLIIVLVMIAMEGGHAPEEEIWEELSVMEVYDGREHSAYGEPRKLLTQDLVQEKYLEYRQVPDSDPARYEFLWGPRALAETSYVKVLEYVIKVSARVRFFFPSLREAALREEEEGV


Assays:
human MAGEA9 = biological target: T1, human MAGEA9; assay: IHC, FFPE CHO cells transfected with human MAGEA9
Protocol: (§1) FFPE samples were sectioned at 4 μm and mounted on positive charged glass slides. After mounting, paraffin sections were air-dried at room temperature. FFPE TMA samples were received as freshly sectioned and mounted on glass slides. The fully automated IHC assay was performed on a Discovery Ultra Stainer (Ventana Medical Systems, Tucson, AZ) using Ventana Anti-Rabbit HQ (cat #760-4815), Ventana Anti-HQ HRP (cat #760-4820), and Ventana Antibody Diluent with Casein (cat #760-219) (Ventana Medical Systems, Tucson, AZ). The slides were baked on the Discovery Ultra Stainer at 60° C. for 8 minutes, de-paraffinized with Ventana Discovery wash (cat #950-510) for 3 cycles (8 minutes each) at 69° C., and underwent cell conditioning (target retrieval) at 95° C. for 16 minutes (for cell arrays) or 32 minutes (tissues or TMAs) in CC1 buffer (cat #950-500). Following this, slides were incubated with Background Sniper (cat #BS966M, Biocare Medical, Pacheco, CA) in a Ventana Option Prep kit (cat #771-751) for 28 minutes, incubated with CM inhibitor (a part of the Ventana DAB kit cat #760-159) for 12 minutes, and incubated for 1 h at RT with MAGE-B2 antibody diluted with Ventana diluent with Casein in a Ventana Prep kit (cat #770-001) (working concentration at 0.1 μg/ml for cell pellet, or 1-5 ug/ml for tissues) or with a matched concentration of isotype control Rabbit IgG1 antibody. Following this, slides were incubated with the Ventana Anti-Rabbit HQ (cat #760-4815) for 28 minutes at RT, Ventana Anti-HQ HRP (cat #760-4820) for 28 minutes at RT, and signals detected with Ventana DAB chromogen kit (cat #760-159) for 5 minutes at RT. Slides were counterstained with Ventana Hematoxylin II (cat #5266726001) for 8 minutes and Ventana Bluing reagent (cat #526676900) for 4 minutes. Slides were coverslipped and digitized using an Aperio AT2 scanner (Leica Biosystems Inc, Buffalo Grove, IL).

[1] = biological target: T2, Human MAGEB2 (Melanoma-associated …); assay: IHC on FFPE NCI-H82 cells (endogenous MAGEB2)
Protocol: as §1

human MAGEA11 = biological target: T3, human MAGEA11; assay: IHC, FFPE CHO cells transfected with human MAGEA11
Protocol: as §1

human MAGEA1 = biological target: T4, human MAGEA1; assay: IHC, FFPE CHO cells transfected with human MAGEA1
Protocol: as §1

Row | Binder | binding result (human MAGEA9) | IHC % Frequency [1] | IHC Intensity [1] | binding result (human MAGEA11) | binding result (human MAGEA1)
1 | 1C3 (antibody, V domains shown, also called MAGE-B2 (IC3); anti-MAGEB2 antibody 1C3) VH: QSLEESGGGLVQPEGSLTLTCTAFGVTLTNYYICWVRQAPGKGLEWVGCIDNANGRTYYASWAKGRFTISKTSSTTGTLQMTSLTAADTATYFCARSLATPLWGPGTLVTVSS VL: DIVMTQTPSSVEAAVGGTVTIKCQASQNISSYLAWYQQKPGQPPKLLIYRASTLASGVPSRFKGSGSGTQFTLTISDLECADAATYYCQSYDDSRSSNFFYAFGGGTEVVVKG | no binding (tested: 0.1 µg/ml) | 0% | 1 | no binding (tested: 0.1 µg/ml) | no binding (tested: 0.1 µg/ml)
2 | 4G17 (antibody, IgG1, V domains shown, Rabbit monoclonal IgG1; Tested as supernatant and as small batch purified antibody; also called MAGE-B2 (4G17); anti-MAGEB2 antibody 4G17) VH: QSLEESGGGLVQPEGSLTLTCTASGVTLSNYYICWVRQAPGKGLEWIGCIDNVNGRTYYASWAKGRFTISKTSSTTGTLQMTSLTAADTATYFCARSLATPLWGPGTLVTVSS VL: DIVMTQTPASVEAAVGGTVTIKCQASQNIDSYLAWYQQKPGQPPKLLIYRASTLASGVPSRFKGSGSGTEFTLTISDLECADAATYYCQSYDDSRSSSFFYGFGGGTEVVVK | no binding (tested: 0.1 µg/ml) | 0% | 0 | no binding (tested: 0.1 µg/ml) | no binding (tested: 0.1 µg/ml)
3 | 1J15 (antibody, IgG1, V domains shown, Rabbit monoclonal IgG1; Tested as supernatant and as small batch purified antibody; also called MAGE-B2 (IJ15); anti-MAGEB2 antibody 1J15) VH: QSLEESGGGLVQPEGSLTLTCTAFGFTLNNYYICWVRQAPGKGLEWIACIDNANGRTYYASWAKGRFTISKTSSTTVTLQMTSLTAADTATYFCARSLSTPLWGPGTLVTVSS VL: DIVMTQTPASVEAAVGGTVTIKCQASQSISSYLSWYQQKPGQPPKLLIYRASTLASGVPSRFRGSGSGTQFTLTISDLECADAATYYCQSYDDSSDNNFFYGFGGGTEVVVR | no binding (tested: 0.1 µg/ml) | 0% | 0 | no binding (tested: 0.1 µg/ml) | no binding (tested: 0.1 µg/ml)
4 | 1I14 (antibody, V domains shown, also called MAGE-B2 (1i14)) VH: QSVEESGGRLVTPGTPLTLTCTISGFSLSSYAMSWVRQAPGKGLEWIGSIGGGGSAVYASWAKGRFTISKTSTTVDLRITSPTTEDTAMYFCGRGFYSIDLWGPGTLVTVSS VL: DVVMTQTPASVEATVGGTVTIKCQSSQSVYDNNALAWYQQNAGQRPRLLIYGASTLASGVPSRFSASGSGTEFTLTISDLECADAATYYCQCTYYVSSYQNDFGGGTEVVVKG | no binding (tested: 0.1 µg/ml) | 0% | 0 | no binding (tested: 0.1 µg/ml) | no binding (tested: 0.1 µg/ml)
